Reference: patent publication US20260234121A1, “DERIVATIVES, IMMUNOGENS, AND ANTIBODIES AND USE OF THE SAME IN DETECTION OF ECSTASY-CLASS COMPOUNDS” (Siemens Healthcare Diagnostics Inc., priority 2023, published 2026)

Assays:
[1] = Prototype EMIT ecstasy assay, cross-reactivity with methamphetamine; type: biochemical; settings: conjugate Compound 58; negative urine pool
[2] = Prototype EMIT ecstasy assay, cross-reactivity with amphetamine; type: biochemical; settings: conjugate Compound 58; negative urine pool
E1-OVA (55) = assay: ELISA binding of hybridoma supernatant to E1-OVA (55) coated plates, without inhibitor; settings: hybridoma supernatant mixed with PBS alone
Protocol: All ELISA steps were performed at rt. Wells of a Nunc Maxi-Sorp™ flat-bottom ELISA plates (ThermoFisher Scientific, Waltham, MA) were coated with 50 μL E1-OVA (55), E2-OVA (65), and E3-OVA (72) at a concentration of 1 μg/mL in PBS for 1 h. The plates were flicked dried and remaining binding sites were blocked with 200 μL per well of blocking solution (0.5% casein, 0.05% (v/v) Tween 20 in PBS) for one hour. Plates were washed six times with MilliQ water containing 0.05% (v/v) Tween 20 on Biotek 405 LS plate washer equipped with microplate Biostacker 3 (Biotek, Winooski, VT). 50 μL of serially diluted antibody samples (serial dilutions of serum, hybridoma supernatant, or monoclonal antibodies in PBS) were added to each well and incubated for one hour. Unbound antibodies were removed by washing as described above, and 50 μL of secondary goat anti-rabbit IgG HRP or goat anti-mouse IgG (Fc)-HRP conjugate (ThermoFisher Scientific, USA), diluted 1:3,000 in the blocking solution was added to each well for detection bound rabbit or mouse antibody, respectively. Plates were incubated for one hour, washed and 100 μL of TMB substrate (Moss, Pasadena, MD) was added for 15 min to determine bound peroxidase. Optical density (OD) of the samples at 650 nm was measured using an ELISA plate reader (Molecular Devices LLC., San Jose, CA). The titer of each serum sample was designated as the maximum dilution that yielded at least twice the absorbance of the same dilution of the nonimmune control serum.
The supernatants were screened in a competitive ELISA for the presence of anti-ecstasy compound monoclonal antibodies (mAbs) as follows. 25 μL of the hybridoma supernatant was mixed with equal volume of PBS alone or containing 20 μg/mL inhibitor (MDA or MDMA) were incubated for 1 h in the wells of E1-OVA (55) coated ELISA plates. The plates were washed and the presence of bound mAbs were detected using goat anti-mouse IgG (Fc)-HRP conjugate and TMB substrate as described above. The level of inhibition of mAb/E1-OVA (55) binding in the presence of the inhibitor was estimated using a Percent (%) Inhibition calculated by the below formula:
[formula] • where “OD650 nm w/o Inhibitor” is the binding response of the antibody sample diluted in PBS alone (with no inhibitor), and the “OD650 nm with Inhibitor” is the binding response of the same antibody sample in the presence of 10 μg/mL of inhibitor (i.e., MDA or MDMA). […]

Row | Molecule | Concentrations (μg/mL) of Structurally Related Compounds Equivalent to 500 ng/mL MDMA Cutoffs, (+/−) mAmph [1] [µg/mL] | Concentrations (μg/mL) of Structurally Related Compounds Equivalent to 500 ng/mL MDMA Cutoffs, (+/−) Amph [2] [µg/mL] | E1-OVA (55) Binding, OD650 nm w/o inhib (E1-OVA (55)) [OD650 nm]
1 | 178K 3C8 mAb: mouse monoclonal antibody raised against E1-KLH (56); IgG1, κ; heavy chain SEQ ID NO 88, light chain SEQ ID NO 112 (antibody) heavy: MNFGLSLIFLVLILKGVQCEVQLVESGGDLVKPGESLKLACAASGFTFSRDVMSWVRQTPDKRLEWVATISSNGIYIYYTDSVKGRFTISRDNAKNTLYLQLSSLRSEDTAVYYCSRGNNLDSWGQGTTLTVSSAKTTPPSVYPLAPGSAAQTNSMVTLGCLVKGYFPEPVTVTWNSGSLSSGVHTFPAVLQSDLYTLSSSVTVPSSTWPSETVTCNVAHPASSTKVDKKIVPRDCGCKPCICTVPEVSSVFIFPPKPKDVLTITLTPKVTCVVVDISKDDPEVQFSWFVDDVEVHTAQTQPREEQFNSTFRSVSELPIMHQDWLNGKEFKCRVNSAAFPAPIEKTISKTKGRPKAPQVYTIPPPKEQMAKDKVSLTCMITDFFPEDITVEWQWNGQPAENYKNTQPIMDTDGSYFIYSKLNVQKSNWEAGNTFTCSVLHEGLHNHHTEKSLSHSPGK light: MRFSAQLLGLLVLWIPGSTADIVMTQAAFSNPVTLGTSASISCRSSKSLLHRNGITYLYWYLQKPGQSPQLLIYQMSNLASGVSDRFSSSGSGTDFTLRISRVEAEDVGVYFCGQDLELPYSFGGGTKLEIKRADAAPTVSIFPPSSEQLTSGGASVVCFLNNFYPKDINVKWKIDGSERQNGVLNSWTDQDSKDSTYSMSSTLTLTKDEYERHNSYTCEATHKTSTSPIVKSFNRNEC | 50 | 30 | 2.389
2 | 178K 5B11 mAb: mouse monoclonal antibody raised against E1-KLH (56); IgG1, κ; heavy chain SEQ ID NO 90, light chain SEQ ID NO 114 (antibody) heavy: MNFGLSLIFLALILKGVQCEVQLVESGGDLVKPGGSLKLSCAASGFSFSAYVMSWVRQTPDKRLEWVATISRGGSYIYYPDSVKGRFTISRDDARDTLYLQMTSLKSEDTAVYYCSGGNNLDYWGQGTALTVSSAKTTPPSVYPLAPGSAAQTNSMVTLGCLVKGYFPEPVTVTWNSGSLSSGVHTFPAVLQSDLYTLSSSVTVPSSTWPSETVTCNVAHPASSTKVDKKIVPRDCGCKPCICTVPEVSSVFIFPPKPKDVLTITLTPKVTCVVVDISKDDPEVQFSWFVDDVEVHTAQTQPREEQFNSTFRSVSELPIMHQDWLNGKEFKCRVNSAAFPAPIEKTISKTKGRPKAPQVYTIPPPKEQMAKDKVSLTCMITDFFPEDITVEWQWNGQPAENYKNTQPIMDTDGSYFIYSKLNVQKSNWEAGNTFTCSVLHEGLHNHHTEKSLSHSPGK light: MRFSAQLLGLLVLWIPGSTADIVMTQAAFSNPVTLGTSASISCRSSKSLLQINGITYLYWYLQKPGQSPQLLIYQMSNLASGVPDRFSSSGSGTDFTLRISRVEAEDVGVYYCGQDLELPYTFGGGTKLEIKRADAAPTVSIFPPSSEQLTSGGASVVCFLNNFYPKDINVKWKIDGSERQNGVLNSWTDQDSKDSTYSMSSTLTLTKDEYERHNSYTCEATHKTSTSPIVKSFNRNEC | 30 to 50 | 25 to 30 | 2.893
3 | 178F 4H5 mAb: mouse monoclonal antibody raised against E1-KLH (56); IgG2a, κ; heavy chain SEQ ID NO 81, light chain SEQ ID NO 105 (antibody) heavy: MNFGLSLIFLALILKGVQCEVQLVESGGDLVQPGGSLILSCVASGFTFRNYVMSWIRQTPDKRLEWVATINSGGSYTYYPDTVKGRFTISRDNAKSTLYLQMSSLKSEDTAMYYCASGNFLDYWGQGTSVTVSSAKTTPPSVYPLAPGSAAQTNSMVTLGCLVKGYFPEPVTVTWNSGSLSSGVHTFPAVLQSDLYTLSSSVTVPSSTWPSQTVTCNVAHPASSTKVDKKIVPRDCGCKPCICTVPEVSSVFIFPPKPKDVLTITLTPKVTCVVVDISKDDPEVQFSWFVDDVEVHTAQTKPREEQINSTFRSVSELPIMHQDWLNGKEFKCRVNSAAFPAPIEKTISKTKGRPKAPQVYTIPPPKEQMAKDKVSLTCMITNFFPEDITVEWQWNGQPAENYKNTQPIMDTDGSYFVYSKLNVQKSNWEAGNTFTCSVLHEGLHNHHTEKSLSHSPGK light: MRFSAQLLGLLVLWIPGSTADIVMTQAAFSNPVTLGTSASISCRSSKSLLNSYGITYLYWYLQKPGQSPQLLIYQMSNLASGVPDRFSSSGSGTDFTLRISRVEAEDVGVYYCGQDLELPYTFGSGTQLEIKRADAAPTVSIFPPSSEQLTSGGASVVCFLNNFYPKDINVKWKIDGSERQNGVLNSWTDQDSKDSTYSMSSTLTLTKDEYERHNSYTCEATHKTSTSPIVKSFNRNEC | 30 to 40 | 30 | 2.948
4 | 178H 2A7 mAb: mouse monoclonal antibody raised against E1-KLH (56); IgG1, κ; heavy chain SEQ ID NO 82, light chain SEQ ID NO 106 (antibody) heavy: MNFGLSLISLALILKGVQCEVHLVESGGDLVKPGGSLKLSCAASGFTFSSYVMSWVRQTPDKRLEWIATISYGGGHYTYYPDSVKGRFTISRDNAKNTLYLQMNSLKSDDTAMYYCSSGNALNYWGQGTSVTVSSAKTTPPSVYPLAPGSAAQTNSMVTLGCLVKGYFPEPVTVTWNSGSLSSGVHTFPAVLQSDLYTLSSSVTVPSSTWPSQTVTCNVAHPASSTKVDKKIVPRDCGCKPCICTVPEVSSVFIFPPKPKDVLTITLTPKVTCVVVDISKDDPEVQFSWFVDDVEVHTAQTKPREEQINSTFRSVSELPIMHQDWLNGKEFKCRVNSAAFPAPIEKTISKTKGRPKAPQVYTIPPPKEQMAKDKVSLTCMITNFFPEDITVEWQWNGQPAENYKNTQPIMDTDGSYFVYSKLNVQKSNWEAGNTFTCSVLHEGLHNHHTEKSLSHSPGK light: MRFSAQLLGLLVLWIPGSTADIVMTQAAFSNPVTLGTSASISCRSSKSLLHYTGITYLYWYLQKPGQSPQLLIYQMSNLASGVPDRFSSSGSGTDFTLRISRVEAEDVGVYYCGQDLELPYSFGSGTKLEIKRADAAPTVSIFPPSSEQLTSGGASVVCFLNNFYPKDINVKWKIDGSERQNGVLNSWTDQDSKDSTYSMSSTLTLTKDEYERHNSYTCEATHKTSTSPIVKSFNRNEC | 30 to 40 | 40 to 45 | 2.900
5 | 178F 4C12 mAb: mouse monoclonal antibody raised against E1-KLH (56); IgG1, κ; heavy chain SEQ ID NO 80, light chain SEQ ID NO 104 (antibody) heavy: MNFGLSLIFLALILKGVQCEVQLVESGGDLVKPGGSLKLSCAASGFTFSRFVMSWVRQTPDKRLEWVATISSGGIHTYYLDSVKGRVTIFRDNAKNTLYLQMSSLESEDTAMYYCAAGNALDYWGQGTSVTVSSAKTTAPSVYPLAPVCGGTTGSSVTLGCLVKGYFPEPVTLTWNSGSLSSGVHTFPALLQSGLYTLSSSVTVTSNTWPSQTITCNVAHPASSTKVDKKIEPRVPITQNPCPPLKECPPCAAPDLLGGPSVFIFPPKIKDVLMISLSPMVTCVVVDVSEDDPDVQISWFVNNVEVHTAQTQTHREDYNSTLRVVSALPIQHQDWMSGKEFKCKVNNRALPSPIEKTISKPRGPVRAPQVYVLPPPAEEMTKKEFSLTCMITGFLPAEIAVDWTSNGRTEQNYKNTATVLDSDGSYFMYSKLRVQKSTWERGSLFACSVVHEGLHNHLTTKTISRSLGK light: MRFSAQLLGLLVLWIPGSTADIVMTQAAFSNPVTLGTSGSVSCRSSKSLLHSNGITYLYWYLQKPGQSPQLLIYQMSNLASGVPDRFSSTGSGTDFTLRISRVEAEDVGVYYCGQDLELPYSFGSGTKLEIKRADAAPTVSIFPPSSEQLTSGGASVVCFLNNFYPKDINVKWKIDGSERQNGVLNSWTDQDSKDSTYSMSSTLTLTKDEYERHNSYTCEATHKTSTSPIVKSFNRNEC | 40 to 50 | 40 to 45 | 2.836
